Target: Hen eggwhite lysozyme (HEWL), control (no iodoacetamide), in 50 mM phosphate buffer at pH 12.2 (hen) (UniProt P00698)
Test: single-molecule force spectroscopy (AFM pulling); HEWL aggregates formed after 4 days of incubation at pH 12.2, 120 uM in 50 mM phosphate buffer, on a gold coated coverslip; pulling speed 400 nm/s

Hen eggwhite lysozyme (HEWL), control (no iodoacetamide), in 50 mM phosphate buffer at pH 12.2 (from UniProt P00698 19-147) (enzyme)
average detachment force: 1000 pN
mechanical stability (detachment peak force): 300 to 2600 pN
